# Results from patent US20110118447A1.
# Positions count from the first letter of the chain named. Names may count otherwise.
# B1: C5A (XPA23) VL Q27D (antibody, V domains shown)
# VH: EVQLLESGGGLVQPGGSLRLSCAASGFTFSKYFMFWVRQAPGKGLEWVSVISPSGGMTRYADSVKGRFTISRDNSKNTLYLQMNSLRAEDTAVYYCARVGYGGNSDYWGQGTLVTVSS
# VL: DIQMTQSPSSVSASVGDRLTIICRASDDINRWLAWYQQTPGNAPKLLIHSATSLQSGVPSRFSGSGSGTDFTLTINSLQPEDFATYYCQQADSFPLTFGGGTKVEIK
# B2: C5A (XPA23) VL R31K (antibody, V domains shown)
# VH: B1 VH
# VL: B1 VL with D27Q, R31K
# B3: C5A (XPA23) VL Q27R (antibody, V domains shown)
# VH: B1 VH
# VL: B1 VL with D27R
# B4: C5A (XPA23) VL N30D (antibody, V domains shown)
# VH: B1 VH
# VL: B1 VL with D27Q, N30D
# B5: C5A (XPA23) VL D28H (antibody, V domains shown)
# VH: B1 VH
# VL: B1 VL with D27Q, D28H
# B6: C5A (XPA23) VL D28T (antibody, V domains shown)
# VH: B1 VH
# VL: B1 VL with D27Q, D28T
# B7: C5A (XPA23) VL S50Q (antibody, V domains shown)
# VH: B1 VH
# VL: B1 VL with D27Q, S50Q
# B8: C5A (XPA23) VL N30S (antibody, V domains shown)
# VH: B1 VH
# VL: B1 VL with D27Q, N30S
# B9: C5A (XPA23) VL N30Q (antibody, V domains shown)
# VH: B1 VH
# VL: B1 VL with D27Q, N30Q
# B10: C5A (XPA23) VL D28Y (antibody, V domains shown)
# VH: B1 VH
# VL: B1 VL with D27Q, D28Y
# B11: C5A (XPA23) VL N30E (antibody, V domains shown)
# VH: B1 VH
# VL: B1 VL with D27Q, N30E
# B12: C5A (XPA23) VL S50T (antibody, V domains shown)
# VH: B1 VH
# VL: B1 VL with D27Q, S50T
# B13: C5A (XPA23) VL S50E (antibody, V domains shown)
# VH: B1 VH
# VL: B1 VL with D27Q, S50E
# B14: C5A (XPA23) VL H49N (antibody, V domains shown)
# VH: B1 VH
# VL: B1 VL with D27Q, H49N
# B15: C5A (XPA23) VL A51R (antibody, V domains shown)
# VH: B1 VH
# VL: B1 VL with D27Q, A51R
# B16: C5A (XPA23) VL S50H (antibody, V domains shown)
# VH: B1 VH
# VL: B1 VL with D27Q, S50H
# B17: C5A (XPA23) VL N30Y (antibody, V domains shown)
# VH: B1 VH
# VL: B1 VL with D27Q, N30Y
# B18: C5A (XPA23) VL N30R (antibody, V domains shown)
# VH: B1 VH
# VL: B1 VL with D27Q, N30R
# B19: C5A (XPA23) VL D28R (antibody, V domains shown)
# VH: B1 VH
# VL: B1 VL with D27Q, D28R
# B20: C5A (XPA23) VL A51H (antibody, V domains shown)
# VH: B1 VH
# VL: B1 VL with D27Q, A51H
# B21: C5A (XPA23) VL Q27T (antibody, V domains shown)
# VH: B1 VH
# VL: B1 VL with D27T
# B22: C5A (XPA23) VL H49R (antibody, V domains shown)
# VH: B1 VH
# VL: B1 VL with D27Q, H49R
# B23: C5A (XPA23) VL H49K (antibody, V domains shown)
# VH: B1 VH
# VL: B1 VL with D27Q, H49K
# B24: C5A (XPA23) VL R31Q (antibody, V domains shown)
# VH: B1 VH
# VL: B1 VL with D27Q, R31Q
# B25: C5A (XPA23) VL A51E (antibody, V domains shown)
# VH: B1 VH
# VL: B1 VL with D27Q, A51E
# B26: C5A (XPA23) VL H49D (antibody, V domains shown)
# VH: B1 VH
# VL: B1 VL with D27Q, H49D
# B27: C5A (XPA23) VL R31D (antibody, V domains shown)
# VH: B1 VH
# VL: B1 VL with D27Q, R31D
# B28: C5A (XPA23) VL Q27H (antibody, V domains shown)
# VH: B1 VH
# VL: B1 VL with D27H
# B29: C5A (XPA23) VL D28E (antibody, V domains shown)
# VH: B1 VH
# VL: B1 VL with D27Q, D28E
# B30: C5A (XPA23) VL R31S (antibody, V domains shown)
# VH: B1 VH
# VL: B1 VL with D27Q, R31S
# B31: C5A (XPA23) VL S50Y (antibody, V domains shown)
# VH: B1 VH
# VL: B1 VL with D27Q, S50Y
# B32: C5A (XPA23) VL N30H (antibody, V domains shown)
# VH: B1 VH
# VL: B1 VL with D27Q, N30H
# B33: C5A (XPA23) VL S50N (antibody, V domains shown)
# VH: B1 VH
# VL: B1 VL with D27Q, S50N
# B34: C5A (XPA23) VL D28N (antibody, V domains shown)
# VH: B1 VH
# VL: B1 VL with D27Q, D28N
# B35: C5A (XPA23) VL H49Y (antibody, V domains shown)
# VH: B1 VH
# VL: B1 VL with D27Q, H49Y
# B36: C5A (XPA23) VL Q27S (antibody, V domains shown)
# VH: B1 VH
# VL: B1 VL with D27S
# B37: C5A (XPA23) VL R31N (antibody, V domains shown)
# VH: B1 VH
# VL: B1 VL with D27Q, R31N
# B38: C5A (XPA23) VL H49S (antibody, V domains shown)
# VH: B1 VH
# VL: B1 VL with D27Q, H49S
# B39: C5A (XPA23) VL D28K (antibody, V domains shown)
# VH: B1 VH
# VL: B1 VL with D27Q, D28K
# B40: C5A (XPA23) VL S50K (antibody, V domains shown)
# VH: B1 VH
# VL: B1 VL with D27Q, S50K
# B41: C5A (XPA23) VL N30K (antibody, V domains shown)
# VH: B1 VH
# VL: B1 VL with D27Q, N30K
# B42: C5A (XPA23) VL Q27E (antibody, V domains shown)
# VH: B1 VH
# VL: B1 VL with D27E
# B43: C5A (XPA23) VL N30T (antibody, V domains shown)
# VH: B1 VH
# VL: B1 VL with D27Q, N30T
# B44: C5A (XPA23) VL R31T (antibody, V domains shown)
# VH: B1 VH
# VL: B1 VL with D27Q, R31T
# B45: C5A (XPA23) VL A51D (antibody, V domains shown)
# VH: B1 VH
# VL: B1 VL with D27Q, A51D
# B46: C5A (XPA23) VL D28S (antibody, V domains shown)
# VH: B1 VH
# VL: B1 VL with D27Q, D28S
# Target: binding partner of C5A (XPA23)
# Assay: Biacore K-off
row,Binder,fold difference in affinity vs original [fold]
1,B1,1.07
2,B2,1.18
3,B3,0.89
4,B4,0.81
5,B5,1.23
6,B6,1.19
7,B7,0.21
8,B8,0.72
9,B9,0.6
10,B10,1.45
11,B11,0.64
12,B12,0.87
13,B13,0.02
14,B14,0.31
15,B15,0.18
16,B16,0.05
17,B17,1.4
18,B18,0.74
19,B19,0.94
20,B20,0.61
21,B21,0.64
22,B22,0.21
23,B23,0.1

row,Binder,fold difference in affinity vs original [fold]
1,B24,0.27
2,B25,0.29
3,B26,0.11
4,B27,11.1
5,B28,1.09
6,B29,0.74
7,B30,0.44
8,B31,0.05
9,B32,1
10,B33,0.25
11,B34,1
12,B35,0.52
13,B36,3.3
14,B37,0.38
15,B38,0.14
16,B39,0.82
17,B40,0.1
18,B41,0.61
19,B42,1.08
20,B43,0.97
21,B44,0.24
22,B45,0.13
23,B46,5.25
